B1: mRNA-splicing (parent)
chain: AGUUGCUGCUGGGAGCUCCAGCACAGUGAAAUGGACAGAAGGGCAGAGCAA

Variants of: B1
Assay: exon inclusion enrichment index; higher = more inclusion; WT1 exon 5 minigene, HEK293

Variant | exon inclusion enrichment index
G5A U7C G8A U10C A35C C36A | 1.46
G5A U7C G8A U10C A35C C36U | 0.244
G5A U7C G8A U10C A35C C36G | 2.06
G5A U7C G8A U10C A31C | 2.89
G5A U7C G8A U10C A31G | 2.95
G5A U7C G8A U10C A31U | 2.07
G5A U7C G8A U10C G12C G13A | 0.95
G5A U7C G8A U10C G12C G13C | 0.397
G5A U7C G8A U10C G12C G13U | 0.139
G5A U7C G8A U10C A39G A40C | 2.53
G5A U7C G8A U10C A39G A40U | 0.283
G5A U7C G8A U10C A39G A40G | 0.26
G5A U7C G8A U10C C16A U17G | 1.33
G5A U7C G8A U10C C16A U17A | 2.05
G5A U7C G8A U10C C16A U17C | 1.83
G5A U7C G8A U10C C36G A37C | 0.667
G5A U7C G8A U10C C36G A37G | 0.405
G5A U7C G8A U10C C36G A37U | 1.08
G5A U7C G8A U10C G13A A14U | 2.87
G5A U7C G8A U10C G13A A14G | 2.19
G5A U7C G8A U10C G13A A14C | 2.98
G5A U7C G8A U10C G11A | 1.34
G5A U7C G8A U10C G11U | 1.6
G5A U7C G8A U10C G11C | 1.96

Variant | exon inclusion enrichment index
G5A U7C G8A U10C G21U C22G | 2.27
G5A U7C G8A U10C G21U C22U | 0.857
G5A U7C G8A U10C G21U C22A | 0.951
G5A U7C G8A U10C G15U C16A | 1.58
G5A U7C G8A U10C G15U C16U | 1.86
G5A U7C G8A U10C G15U C16G | 1.74
G5A U7C G8A U10C A30C A31C | 3.14
G5A U7C G8A U10C A30C A31G | 3.4
G5A U7C G8A U10C A30C A31U | 2.21
G5A U7C G8A U10C A47C | 2.83
G5A U7C G8A U10C A47G | 0.395
G5A U7C G8A U10C A47U | 2
G5A U7C G8A U10C A20C G21A | 0.984
G5A U7C G8A U10C A20C G21U | 1
G5A U7C G8A U10C A20C G21C | 0.722
G5A U7C G8A U10C C16U U17A | 1.74
G5A U7C G8A U10C C16U U17G | 0.815
G5A U7C G8A U10C C16U U17C | 1.33
G5A U7C G8A U10C G12A | 1.48
G5A U7C G8A U10C G12C | 1.57
G5A U7C G8A U10C G12U | 1.13
G5A U7C G8A U10C A29C A30U | 1.35
G5A U7C G8A U10C A29C A30G | 3.21
G5A U7C G8A U10C A29C A30C | 2.73

Variant | exon inclusion enrichment index
G5A U7C G8A U10C A45G | 3.76
G5A U7C G8A U10C A45U | 2.8
G5A U7C G8A U10C A45C | 2.28
G5A U7C G8A U10C C44A | 3.82
G5A U7C G8A U10C C44G | 3.26
G5A U7C G8A U10C C44U | 0.581
G5A U7C G8A U10C G26C U27A | 2.48
G5A U7C G8A U10C G26C U27G | 3.53
G5A U7C G8A U10C G26C U27C | 3.74
G5A U7C G8A U10C C18A C19G | 0.297
G5A U7C G8A U10C C18A C19A | 0.451
G5A U7C G8A U10C C18A C19U | 0.0739
G5A U7C G8A U10C C18G C19A | 2.92
G5A U7C G8A U10C C18G C19U | 0.528
G5A U7C G8A U10C C18G C19G | 2.62
G5A U7C G8A U10C A23G C24G | 3.83
G5A U7C G8A U10C A23G C24A | 3.5
G5A U7C G8A U10C A23G C24U | 0.823
G5A U7C G8A U10C C22A A23G | 2.59
G5A U7C G8A U10C C22A A23C | 3.53
G5A U7C G8A U10C C22A A23U | 2.17
G5A U7C G8A U10C C19U | 0.131
G5A U7C G8A U10C C19G | 1.88
G5A U7C G8A U10C C19A | 1.39

Variant | exon inclusion enrichment index
G5A U7C G8A U10C A39G | 1.33
G5A U7C G8A U10C A39C | 0.541
G5A U7C G8A U10C A39U | 0.113
G5A U7C G8A U10C A35G C36U | 0.025
G5A U7C G8A U10C A35G C36A | 1.29
G5A U7C G8A U10C A35G C36G | 0.306
G5A U7C G8A U10C G34A A35G | 1.09
G5A U7C G8A U10C G34A A35C | 1.83
G5A U7C G8A U10C A30U A31U | 1.86
G5A U7C G8A U10C A30U A31C | 2.13
G5A U7C G8A U10C A30U A31G | 2.36
G5A U7C G8A U10C A37C G38U | 1.6
G5A U7C G8A U10C A37C G38A | 2.05
G5A U7C G8A U10C A37C G38C | 2.35
G5A U7C G8A U10C A30G A31U | 0.691
G5A U7C G8A U10C A30G A31G | 0.823
G5A U7C G8A U10C A30G A31C | 0.305
G5A U7C G8A U10C A45C G46U | 1.12
G5A U7C G8A U10C A45C G46A | 1.42
G5A U7C G8A U10C A45C G46C | 1.61
G5A U7C G8A U10C A29G A30G | 1.92
G5A U7C G8A U10C A29G A30C | 1.32
G5A U7C G8A U10C A29G A30U | 0.757
G5A U7C G8A U10C C36G | 1.55

Variant | exon inclusion enrichment index
G5A U7C G8A U10C C36A | 1.85
G5A U7C G8A U10C C36U | 0.719
G5A U7C G8A U10C A39U A40C | 2.41
G5A U7C G8A U10C A39U A40G | 0.575
G5A U7C G8A U10C A39U A40U | 1.02
G5A U7C G8A U10C C24U | 0.763
G5A U7C G8A U10C C24A | 2.26
G5A U7C G8A U10C C24G | 2.53
G5A U7C G8A U10C A45U G46A | 1.75
G5A U7C G8A U10C A45U G46U | 0.84
G5A U7C G8A U10C A45U G46C | 1.55
G5A U7C G8A U10C G28A A29G | 1.02
G5A U7C G8A U10C G28A A29U | 0.513
G5A U7C G8A U10C G28A A29C | 1.44
G5A U7C G8A U10C G15A | 2.02
G5A U7C G8A U10C G15C | 2.72
G5A U7C G8A U10C G15U | 2.27
G5A U7C G8A U10C C22A | 2.32
G5A U7C G8A U10C C22U | 2.11
G5A U7C G8A U10C C22G | 3.37
G5A U7C G8A U10C C18U C19G | 0.804
G5A U7C G8A U10C C18U C19A | 0.212
G5A U7C G8A U10C C18U C19U | 0.0421
G5A U7C G8A U10C A25C G26U | 2.86

Variant | exon inclusion enrichment index
G5A U7C G8A U10C A25C G26A | 4.29
G5A U7C G8A U10C A25C G26C | 2.75
G5A U7C G8A U10C C36A A37G | 1.06
G5A U7C G8A U10C C36A A37C | 2.61
G5A U7C G8A U10C C36A A37U | 1.07
G5A U7C G8A U10C C22G A23U | 0.522
G5A U7C G8A U10C C22G A23C | 1.24
G5A U7C G8A U10C C22G A23G | 1.4
G5A U7C G8A U10C A23C C24A | 2.48
G5A U7C G8A U10C A23C C24G | 3.75
G5A U7C G8A U10C A23C C24U | 1.16
G5A U7C G8A U10C G33U | 0.998
G5A U7C G8A U10C G33C | 2.65
G5A U7C G8A U10C G33A | 0.235
G5A U7C G8A U10C G28C A29U | 1.13
G5A U7C G8A U10C G28C A29C | 1.72
G5A U7C G8A U10C G28C A29G | 3.25
G5A U7C G8A U10C C16G U17G | 0.238
G5A U7C G8A U10C C16G U17C | 1.06
G5A U7C G8A U10C C16G U17A | 2.77
G5A U7C G8A U10C A35C | 0.917
G5A U7C G8A U10C A35U | 0.475
G5A U7C G8A U10C A35G | 0.89
G5A U7C G8A U10C A14U G15U | 0.953

Variant | exon inclusion enrichment index
G5A U7C G8A U10C A14U G15C | 1.01
G5A U7C G8A U10C A14U G15A | 0.514
G5A U7C G8A U10C A31G U32G | 1.52
G5A U7C G8A U10C A31G U32A | 4.37
G5A U7C G8A U10C A31G U32C | 4.44
G5A U7C G8A U10C G21A C22G | 2.31
G5A U7C G8A U10C G21A C22U | 1.26
G5A U7C G8A U10C G21A C22A | 1.09
G5A U7C G8A U10C A29U A30G | 2.78
G5A U7C G8A U10C A29U A30C | 1.98
G5A U7C G8A U10C A29U A30U | 0.907
G5A U7C G8A U10C A40C G41C | 3.47
G5A U7C G8A U10C A40C G41A | 0.979
G5A U7C G8A U10C A40C G41U | 1.28
G5A U7C G8A U10C A23U | 1.81
G5A U7C G8A U10C A23C | 1.89
G5A U7C G8A U10C A23G | 3.56
G5A U7C G8A U10C G28A | 0.733
G5A U7C G8A U10C G28C | 1.68
G5A U7C G8A U10C G28U | 0.556
G5A U7C G8A U10C G33A G34C | 0.421
G5A U7C G8A U10C G33A G34A | 0.398
G5A U7C G8A U10C G33A G34U | 0.361
